T1: His-tagged extracellular domain (ECD) of human IGSF11 (VSIG3) (human, UniProt Q5DX21 23-241)
T1 construct: partly bought (SinoBiological 13094-H08H); also called IGSF11-HIS; HIS-IGSF11; not shown: HIS6 tag
T1 sequence: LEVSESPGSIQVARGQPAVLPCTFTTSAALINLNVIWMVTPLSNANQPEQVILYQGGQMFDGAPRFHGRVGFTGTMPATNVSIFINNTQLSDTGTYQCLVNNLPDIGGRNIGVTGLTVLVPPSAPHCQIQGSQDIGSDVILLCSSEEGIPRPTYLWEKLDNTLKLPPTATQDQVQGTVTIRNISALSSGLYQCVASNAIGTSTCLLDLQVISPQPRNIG

T2: IGSF11 ECD fused to murine-Fc (human; mouse, UniProt Q5DX21 23-241)
T2 construct: also called Fc-fusion IGSF11 ECD; full-length ECD of IGSF11; not shown: murine Fc
T2 sequence: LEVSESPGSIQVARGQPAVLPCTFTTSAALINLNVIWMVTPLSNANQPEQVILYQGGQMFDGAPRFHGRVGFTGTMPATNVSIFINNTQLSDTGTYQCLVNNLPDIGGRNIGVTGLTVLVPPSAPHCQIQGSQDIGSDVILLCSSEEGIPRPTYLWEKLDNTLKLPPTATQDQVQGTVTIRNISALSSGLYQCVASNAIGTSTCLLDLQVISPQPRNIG

B1: A-035 (scFv format) (scFv, V domains shown)
VH: QVQLVQSGAEVKKPGASVKVSCKASGYTFTGYYMHWVRQAPGQGLEWMGWINPNSGNTGYAQKFQGRVTMTRNTSISTAYMELSSLRSEDTAVYYCARGRLERGYWYFDLWGRGTLVTVSS
VL: NFMLTQPHSVSESPGRTVTISCTRSSGSITSNYVQWYQQRPGSAPTILIYEDKERPSEVPDRFSGSIDISSNSASLTISGLKTEDEADYYCQSYGGTSQGVLFGGGTKVTVL
notes: scFv
B2: A-004 (scFv format) (scFv, V domains shown)
VH: EVQLVESGGGLVKPGGSLRLSCAASGFTFSSYSMNWVRQAPGKGLEWVSSISSSSSYIYYADSVKGRFTISRDNAKNSLYLQMNSLRAEDTAVYYCARGQLLWFGESALIDAFDIWGQGTMVTVSS
VL: EIVLTQSPSSLSASVGDRVTITCRASQSISSYLNWYQLKPGKAPKLLIYAASILQSGVPSRFSGSGSGTDFTLTISSLQPEDFAAYYCQQSYSTPRTFGQGTKLEIK
notes: scFv
B3: A-001 (IgG1 format) (antibody, V domains shown)
VH: EVQLVESGGGLVKPGGSLRLSCAASGFTFSSYSMNWVRQAPGKGLEWVSSISSSSSYIYYADSVKGRFTISRDNAKNSLYLQMNSLRAEDTAVYYCVRSIIVQALGITSVFDIWGQGTMVTVSS
VL: AIRLTQSPSSLSASVGDRVTISCRASQIISNHLNWYQQKPGKAPKLLIYAASRLQTGVPSRFSGSGSETDYTLTISSLQPEDFATYYCQQSYSNPRTFGHGTKVEIK
notes: human IgG1 format
B4: A-023 (IgG1 format) (antibody, V domains shown)
VH: QVQLVQSGAEVKKPGSSVKVSCKASGGTFSSYAISWVRQAPGQGLEWMGGIIPIFGTANYAQKFQGRVTITADESTSTAYMELSSLRSEDTAVYYCARPKYSSGWFYYYGMDVWGQGTTVTVSS
VL: QSVLTQPPSVSAAPGQKVTISCSGSSSNIGNNYVSWYQQLPGTAPKLLIYDNNKRPSGIPDRFSGSKSGTSATLGITGLQTGDEADYYCGTWDSSLSVVFGGGTKLTVL
notes: human IgG1 format
B5: A-025 (IgG1 format) (antibody, V domains shown)
VH: QVQLVQSGAEVKKPGSSVKVSCKASGGTFSSYAISWVRQAPGQGLEWMGGIIPIFGTANYAQKFQGRVTITADESTSTAYMELTSLRSEDTAVYYCARGGWLRQNWFDPWGQGTLVTVSS
VL: SSELTQDPAVSVALGQTVRITCQGDSLRSYYASWYQQKPGQAPVLVIYGKNNRPSGIPDRFSGSSSGNTASLTITGAQAEDEADYYCNSRDSSGNHPRVFGGGTKLTVL
notes: human IgG1 format
B6: A-033 (IgG1 format) (antibody, V domains shown)
VH: QVQLVQSGAEVKKPGASVKVSCKASGYTFTSYGISWVRQAPGQGLEWMGWISAYNGNTNYAQKLQGRVTMTTDTSTSTAYMELRSLRSDDTAVYYCARDHSIVGATTFDYWGQGTLVTVSS
VL: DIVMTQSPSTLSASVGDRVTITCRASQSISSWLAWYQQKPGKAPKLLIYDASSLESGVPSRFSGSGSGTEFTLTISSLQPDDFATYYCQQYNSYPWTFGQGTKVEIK
notes: human IgG1 format
B7: A-003 (IgG1 format) (antibody, V domains shown)
VH: VQLVQSGAEVKKPGSSVKVSCKASGGTFSSYAISWVRQAPGQGLEWMGGIIPIFGTANYAQKFQGRVTITADESTSTAYMELSSLRSEDTAVYYCASPRIQLWAAGGFDYWGQGTLVTVSS
VL: QSALTQPASVSGSPGQSITISCTGTSSDVGGYNLVSWYQQHPGKAPKLMIYDVSNRPSGVSNRFSGSKSGNTASLTISGLQAEDEADYYCSSFTTSTTLVFGGGTKLTVL
notes: human IgG1 format
B8: A-008 (IgG1 format) (antibody, V domains shown)
VH: QLQLQESGPGLVKPSETLSLTCTVSGGSISSSGYYWGWIRQPPGKGLEWIGSIYYSGSTYYNPSLKSRVTISVDTSKNQFSLKLSSVTAADTAVYYCARHRVRFGEFDAFDIWGQGTMVTVSS
VL: QAVLTQPPSVSGAPGERVTLSCTGTSSNVGADFDVHWYQQFPGTAPRLLIFGSDNRPSGVPDRFSGSKSGTSASLAITGLQVEDEADYYCQAYDVRLSGWVFGGGTKLTVL
notes: human IgG1 format
B9: A-009 (IgG1 format) (antibody, V domains shown)
VH: QVQLVQSGAEVKKPGSSVKVSCKASGGTFSSYAISWVRQAPGQGLEWMGGIIPIFGTANYAQKFQGRVTITADESTSTAYMELSSLRSEDTAVYYCARGRGFGELYFDYWGQGTLVTVSS
VL: ETTLTQSPATLSVSPGERATLSCRASQGVRSNIAWYQQKPGQAPRLLIYDSSTRATGIPARFSGSGSGTEFTLTISSLQSEDFAVYSCQQYKNWPRTFGQGTKVEIK
notes: human IgG1 format
B10: A-016 (IgG1 format) (antibody, V domains shown)
VH: QVQLQESGAEVKKPGASVKVSCKASGYTFTGYYMHWVRQAPGQGLEWMGGIIPIFGTANYAQKFQGRVTITADESTSTAYMELSSLRSEDTAVYYCAGAGMELTRSGAYYYYGMDVWGQGTTVTVSS
VL: QSALTQPASVSGSPGQSITISCTGTSSDIGGYTFVSWYQQHPGKAPKVMIHDVNNRPSGISNRFSGSKSGNTASLTISGLQAEDEADYYCSSVTSTNTYVFGTGTKVTVL
notes: human IgG1 format
B11: A-029 (IgG1 format) (antibody, V domains shown)
VH: QVQLVQSGAEVKKPGSSVKVSCKASGGTFSSYAISWVRQAPGQGLEWMGGIIPIFGTANYAQKFQGRVTITADESTGTAYMELSSLRSEDTAVYYCARSYYYYYGMDVWGQGTTVTVSS
VL: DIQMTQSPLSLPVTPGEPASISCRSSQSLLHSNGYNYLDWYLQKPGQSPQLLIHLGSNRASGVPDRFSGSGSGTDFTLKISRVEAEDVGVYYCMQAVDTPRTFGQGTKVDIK
notes: human IgG1 format
B12: C-007 (Fab format) (Fab, V domains shown)
VH: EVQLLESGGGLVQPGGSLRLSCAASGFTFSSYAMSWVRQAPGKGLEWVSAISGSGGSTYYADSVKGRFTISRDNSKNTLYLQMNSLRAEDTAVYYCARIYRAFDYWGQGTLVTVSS
VL: ASVLTQPPSVSAAPGQKVTISCSGSSSNIGNNYVSWYQQLPGTAPKLLIYDNNKRPSGIPDRFSGSKSGTSATLGITGLQAEDEADYYCQLYEEEHSTWVFGGGTKLTVL
notes: Fab in E. coli lysate
B13: C-001 (Fab format) (Fab, V domains shown)
VH: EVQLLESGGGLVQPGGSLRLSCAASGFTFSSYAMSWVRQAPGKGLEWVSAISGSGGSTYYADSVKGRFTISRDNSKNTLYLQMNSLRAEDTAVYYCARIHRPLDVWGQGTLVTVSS
VL: ASVLTQPPSVSAAPGQKVTISCSGSSSNIGNNYVSWYQQLPGTAPKLLIYDNNKRPSGIPDRFSGSKSGTSATLGITGLQAEDEADYYCGSWLEERSQYVFGGGTKLTVL
notes: Fab in E. coli lysate
B14: C-013 (IgG1 format) (antibody, V domains shown)
VH: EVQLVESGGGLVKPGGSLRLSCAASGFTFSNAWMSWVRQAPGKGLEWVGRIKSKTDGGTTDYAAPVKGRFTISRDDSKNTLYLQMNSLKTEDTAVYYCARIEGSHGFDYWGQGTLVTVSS
VL: SYELTQPPSVSVSPGQTASITCSGDKLGDKYASWYQQKPGQSPVLVIYQDSKRPSGIPERFSGSNSGNTATLTISGTQAEDEADYYCASYLHTPKQFVFGGGTKLTVL
notes: wildtype human IgG1 and kappa or lambda constant regions
B15: C-023 (IgG1 format) (antibody, V domains shown)
VH: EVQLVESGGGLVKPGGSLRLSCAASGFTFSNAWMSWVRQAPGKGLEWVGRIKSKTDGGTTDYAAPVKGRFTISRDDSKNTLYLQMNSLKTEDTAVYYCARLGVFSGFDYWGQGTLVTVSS
VL: SYELTQPPSVSVSPGQTASITCSGDKLGDKYASWYQQKPGQSPVLVIYQDSKRPSGIPERFSGSNSGNTATLTISGTQAEDEADYYCHTWTHHSLAVVFGGGTKLTVL
notes: as for B14
B16: C-002 (IgG1 format) (antibody, V domains shown)
VH: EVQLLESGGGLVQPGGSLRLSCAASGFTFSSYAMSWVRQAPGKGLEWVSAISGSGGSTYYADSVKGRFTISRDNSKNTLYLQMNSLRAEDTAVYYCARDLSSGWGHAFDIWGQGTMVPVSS
VL: ASVLTQPPSVSAAPGQKVTISCSGSSSNIGNNYVSWYQQLPGTAPKLLIYDNNKRPSGIPDRFSGSKSGTSATLGITGLQAEDEADYYCLSYTTSEHHLVFGGGTKLTVL
notes: as for B14
B17: C-006 (IgG1 format) (antibody, V domains shown)
VH: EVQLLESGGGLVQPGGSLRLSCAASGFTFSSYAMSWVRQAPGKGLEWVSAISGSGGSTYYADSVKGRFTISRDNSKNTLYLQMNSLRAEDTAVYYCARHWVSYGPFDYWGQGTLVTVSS
VL: DIQMTQSPSSLSASVGDRVTITCRASQSISSYLNWYQQKPGKAPKLLIYAASSLQSGVPSRFSGSGSGTDFTLTISSLQPEDFATYYCQQSHQSPPITFGQGTKVEIK
notes: as for B14
B18: C-008 (IgG1 format) (antibody, V domains shown)
VH: EVQLLESGGGLVQPGGSLRLSCAASGFTFSSYAMSWVRQAPGKGLEWVSAISGSGGSTYYADSVKGRFTISRDNSKNTLYLQMNSLRAEDTAVYYCTTDNGHNRDWGQGTLVTVSS
VL: ASVLTQPPSVSAAPGQKVTISCSGSSSNIGNNYVSWYQQLPGTAPKLLIYDNNKRPSGIPDRFSGSKSGTSATLGITGLQAEDEADYYCGTWTRSSGVFGGGTKLTVL
notes: as for B14
B19: C-009 (IgG1 format) (antibody, V domains shown)
VH: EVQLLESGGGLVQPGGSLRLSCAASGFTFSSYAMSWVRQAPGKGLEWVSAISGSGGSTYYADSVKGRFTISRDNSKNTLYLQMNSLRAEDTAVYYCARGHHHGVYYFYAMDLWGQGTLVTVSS
VL: SYELTQPPSVSVSPGQTASITCSGDKLGDKYASWYQQKPGQSPVLVIYQDSKRPSGIPERFSGSNSGNTATLTISGTQAEDEADYYCQSYSGSSTLHVFGGGTKLTVL
notes: as for B14
B20: C-010 (IgG1 format) (antibody, V domains shown)
VH: QVQLVQSGAEVKKPGSSVKVSCKASGGTFSSYAISWVRQAPGQGLEWMGGIIPIFGTANYAQKFQGRVTITADESTSTAYMELSSLRSEDTAVYYCARGYGEYYPAFDVWGQGTLVTVSS
VL: SYELTQPPSVSVSPGQTASITCSGDKLGDKYASWYQQKPGQSPVLVIYQDSKRPSGIPERFSGSNSGNTATLTISGTQAEDEADYYCASYAHTHSTWVFGGGTKLTVL
notes: as for B14
B21: C-015 (IgG1 format) (antibody, V domains shown)
VH: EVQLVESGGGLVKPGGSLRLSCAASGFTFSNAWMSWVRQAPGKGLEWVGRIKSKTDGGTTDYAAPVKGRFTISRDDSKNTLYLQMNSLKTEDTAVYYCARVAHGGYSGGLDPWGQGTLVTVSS
VL: SYELTQPPSVSVSPGQTASITCSGDKLGDKYASWYQQKPGQSPVLVIYQDSKRPSGIPERFSGSNSGNTATLTISGTQAEDEADYYCSSTGTAHTLAVFGGGTKLTVL
notes: as for B14
B22: C-018 (IgG1 format) (antibody, V domains shown)
VH: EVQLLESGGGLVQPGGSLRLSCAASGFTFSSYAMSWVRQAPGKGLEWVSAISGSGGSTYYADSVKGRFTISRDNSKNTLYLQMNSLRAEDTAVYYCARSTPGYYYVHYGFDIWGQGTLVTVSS
VL: SYELTQPPSVSVSPGQTASITCSGDKLGDKYASWYQQKPGQSPVLVIYQDSKRPSGIPERFSGSNSGNTATLTISGTQAEDEADYYCQAWSTSTHSWVFGGGTKLTVL
notes: as for B14
B23: C-022 (IgG1 format) (antibody, V domains shown)
VH: EVQLLESGGGLVQPGGSLRLSCAASGFTFSSYAMSWVRQAPGKGLEWVSAISGSGGSTYYADSVKGRFTISRDNSKNTLYLQMNSLRAEDTAAYYCARMAAGASWGTFDYWSQGTLVTVSS
VL: DIQMTQSPSSLSASVGDRVTITCRASQSISSYLNWYQQKPGKAPKLLIYAASSLQSGVPSRFSGSGSGTDFTLTISSLQPEDFATYYCQQRSGSPLTFGQGTKVEIK
notes: as for B14
B24: C-024 (IgG1 format) (antibody, V domains shown)
VH: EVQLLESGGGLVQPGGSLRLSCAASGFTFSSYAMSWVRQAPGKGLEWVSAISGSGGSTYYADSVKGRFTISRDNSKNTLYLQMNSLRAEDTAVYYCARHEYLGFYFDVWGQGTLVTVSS
VL: SYELTQPPSVSVSPGQTASITCSGDKLGDKYASWYQQKPGQSPVLVIYQDSKRPSGIPERFSGSNSGNTATLTISGTQAEDEADYYCLASHRLTLNYVFGGGTKLTVL
notes: as for B14
B25: C-026 (IgG1 format) (antibody, V domains shown)
VH: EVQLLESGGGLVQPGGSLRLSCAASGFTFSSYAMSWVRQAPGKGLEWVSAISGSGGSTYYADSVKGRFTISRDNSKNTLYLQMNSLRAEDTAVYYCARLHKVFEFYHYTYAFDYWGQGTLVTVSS
VL: ASVLTQPPSVSAAPGQKVTISCSGSSSNIGNNYVSWYQQLPGTAPKLLIYDNNKRPSGIPDRFSGSKSGTSATLGITGLQAEDEADYYCASYSSETSGWVFGGGTKLTVL
notes: as for B14

target: T3, Streptavidin (UniProt P22629 37-163, limits assumed); assay: ELISA, scFv
T3 construct: also called negative antigen; irrelevant antigen
T3 sequence (P22629 37-163 limits assumed): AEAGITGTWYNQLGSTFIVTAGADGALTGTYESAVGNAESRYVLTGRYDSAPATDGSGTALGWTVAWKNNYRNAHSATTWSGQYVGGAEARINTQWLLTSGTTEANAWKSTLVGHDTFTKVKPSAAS

Binder | binding result
B1 | no binding (tested: <0.025 or <0.05 RFU)
B2 | no binding (tested: <0.025 or <0.05 RFU)

target: T1, His-tagged extracellular domain (ECD) …; assay: ELISA EC50 grade, IgG1

Binder | EC50 [nM]
B3 | < 0.02
B4 | 0.05 to 1
B5 | 0.05 to 1
B6 | 0.02 to 0.05
B7 | 0.05 to 1
B8 | 0.02 to 0.05
B9 | 0.05 to 1
B10 | < 0.02
B11 | 0.05 to 1

target: T3, Streptavidin; assay: ELISA, Fab
Method: In order to identify IGSF11-specific binding ABPs, monoclonal Fabs expressed from E. coli were generated from the enriched set of anti-IGFS11 antibody-expressing phage. After bacterial lysis, the Fabs were tested for their binding properties and cross-reactivity profile on recombinant ECD-IGSF11 (human, mouse and cynomolgus monkey) by standard ELISA. Briefly, biotinylated recombinant ECD-IGSF11 from human, mouse, or cynomolgus monkey were immobilized at 2 ug/mL on a streptavidin-coated 384-well Maxisorp plate. The surface was blocked with 2% (w/v) skim milk powder in PBST. After three wash cycles with PBST, a bacterial lysate of each of the anti-IGSF11 Fabs in 2% (w/v) skim milk powder was applied to the immobilized IGSF11 and incubated for 1 h. After removing all unbound Fab by 3 wash cycles with PBST, bound Fab antibodies were detected with a goat anti-human Fab antibody conjugated with horseradish peroxidase. After three wash cycles with PBST the ELISA was developed with TMB substrate.

Binder | A450
B12 | < 0.1
B13 | < 0.1

target: T2, IGSF11 ECD fused to murine-Fc; assay: ELISA, IgG
From the text: Expi293 cells (ThermoFisher) were transiently transfected with DNA sequences encoding the applicable IGSF11 domain-mFc fusions according to the manufacturer's instructions, and cultured under conditions suitable to the IGSF11 domain fusion. Cell supernatants were harvested 5 days post transfection and the expressed Fc-protein purified via Protein A affinity chromatography (GE Healthcare). IGSF11 domain Fc-fusion proteins were re-buffered into PBS pH7.4. […] The surface was blocked with 2% (w/v) skim milk powder in PBST. After three wash cycles with PBST, a dilution series of IgG-format ABPs was transferred to the immobilized the Fc-fusion IGSF11 ECD or the IGSF11 domains and incubated for 1 h. After removing all unbound antibodies by 3 wash cycles with PBST, bound IgG ABPs were detected with a goat anti-human IgG antibody conjugated with horseradish peroxidase. After three wash cycles with PBST the ELISA was developed with TMB substrate.

Binder | EC50 [nM]
B14 | 1 to 20
B15 | < 1
B16 | 1 to 20
B17 | 1 to 20
B18 | < 1
B19 | 1 to 20
B20 | 20 to 100
B21 | 20 to 100
B22 | 1 to 20
B23 | 1 to 20
B24 | 1 to 20
B25 | 1 to 20

Source: US20240010720A1 (IOMX THERAPEUTICS, published 2024)
